Data reported in PMC7272049 (PLoS ONE, 2020).

B1: mB7-1 mIgG2a (Fc fusion, mouse, UniProt Q00609 38-246, looked up)
chain: VDEQLSKSVKDKVLLPCRYNSPHEDESEDRIYWQKHDKVVLSVIAGKLKVWPEYKNRTLYDNTTYSLIILGLVLSDRGTYSCVVQKKERGTYEVKHLALVKLSIKADFSTPNITESGNPSADTKRITCFASGGFPKPRFSWLENGRELPGINTTISQDPESELYTISSQLDFNTTRNHTIKCLIKYGDAHVSEDFTWEKPPEDPPDSKN
notes: mouse B7-1 (CD80); also called mB7-1 Ig-fusion; B7-1 Fc; source: small-scale purified recombinant protein

Assays:
mPD-L1 E163R mCherry = molecular target: T1, mPD-L1 E163R mCherry (mouse, UniProt Q9EP73 19-290, E163R); assay: flow cytometry on cells; HEK 293 cells expressing PD-L1 mCherry (WT or mutant) queried with protein A microbeads saturated with a 4:1 mixture of PD-1 or B7-1 Fc-fusion and FITC-Fc; no wash; normalised to wild type; conditions: one partner purified
T1 construct: mouse PD-L1; source: HEK 293, transfected, on cells; not shown: mCherry, C-terminal, kept
T1 sequence (Q9EP73 19-290 E163R): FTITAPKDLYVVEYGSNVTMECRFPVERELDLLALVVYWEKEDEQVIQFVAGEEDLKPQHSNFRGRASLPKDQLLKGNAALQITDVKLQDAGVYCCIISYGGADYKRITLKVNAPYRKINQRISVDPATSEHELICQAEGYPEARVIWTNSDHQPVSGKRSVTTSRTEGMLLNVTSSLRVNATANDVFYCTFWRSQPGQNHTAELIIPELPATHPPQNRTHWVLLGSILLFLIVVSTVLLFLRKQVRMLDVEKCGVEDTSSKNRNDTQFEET

mPD-L1 S142A mCherry = molecular target: T2, mPD-L1 S142A mCherry (mouse, UniProt Q9EP73 19-290, S142A); assay: as above; conditions: one partner purified
T2 construct: mouse PD-L1; source: HEK 293, transfected, on cells; not shown: mCherry, C-terminal, kept
T2 sequence (Q9EP73 19-290 S142A): as the sequence (Q9EP73 19-290 E163R) above, with S124A, R145E counted along it

mPD-L1 M188A mCherry = molecular target: T3, mPD-L1 M188A mCherry (mouse, UniProt Q9EP73 19-290, M188A); assay: as above; conditions: one partner purified
T3 construct: mouse PD-L1; source: HEK 293, transfected, on cells; not shown: mCherry, C-terminal, kept
T3 sequence (Q9EP73 19-290 M188A): as the sequence (Q9EP73 19-290 E163R) above, with R145E, M170A counted along it

mPD-L1 E163A mCherry = molecular target: T4, mPD-L1 E163A mCherry (mouse, UniProt Q9EP73 19-290, E163A); assay: as above; conditions: one partner purified
T4 construct: mouse PD-L1; source: HEK 293, transfected, on cells; not shown: mCherry, C-terminal, kept
T4 sequence (Q9EP73 19-290 E163A): as the sequence (Q9EP73 19-290 E163R) above, with R145A counted along it

mPD-L1 Q214A mCherry = molecular target: T5, mPD-L1 Q214A mCherry (mouse, UniProt Q9EP73 19-290, Q214A); assay: as above; conditions: one partner purified
T5 construct: mouse PD-L1; source: HEK 293, transfected, on cells; not shown: mCherry, C-terminal, kept
T5 sequence (Q9EP73 19-290 Q214A): as the sequence (Q9EP73 19-290 E163R) above, with R145E, Q196A counted along it

mB7-1 mIgG2a = molecular target: B1; assay: bead-based flow cytometry competition; protein A beads saturated with mB7-1 mIgG2a; 20 nM mPD-L1 hIgG1 or mCD28 hIgG1 with increasing mIgG2a-fused competitor; anti-human Alexa 488; conditions: both partners purified

Binder	percent of wild-type binding (mPD-L1 E163R mCherry) [%]	percent of wild-type binding (mPD-L1 S142A mCherry) [%]	percent of wild-type binding (mPD-L1 M188A mCherry) [%]	percent of wild-type binding (mPD-L1 E163A mCherry) [%]	percent of wild-type binding (mPD-L1 Q214A mCherry) [%]	binding result (mB7-1 mIgG2a)
B1	~50	~50	~50	~50	~50	
mCD28 hIgG1 (Fc fusion, mouse, UniProt P31041 20-150, looked up, mouse CD28; also called soluble mCD28 hIgG1) NKILVKQSPLLVVDSNEVSLSCRYSYNLLAKEFRASLYKGVNSDVEVCVGNGNFTYQPQFRSNAEFNCDGDFDNETVTFRLWNLHVNHTDIYFCKIEFMYPPPYLDNERSNGTIIHIKEKHLCHTQSSPKL						binds
mCD28 mIgG2a (Fc fusion, mouse, UniProt P31041 20-150, looked up, mouse CD28) NKILVKQSPLLVVDSNEVSLSCRYSYNLLAKEFRASLYKGVNSDVEVCVGNGNFTYQPQFRSNAEFNCDGDFDNETVTFRLWNLHVNHTDIYFCKIEFMYPPPYLDNERSNGTIIHIKEKHLCHTQSSPKL						binds
